Test results reported in publication PMC4351136.

Tests used:
[1] = molecular target: human β2GPI (beta2-glycoprotein I) (human (endogenous in pooled normal human serum)) (UniProt P02749); test: ELISA
[2] = molecular target: mouse β2GPI (beta2-glycoprotein I) (mouse (endogenous in pooled BALB/c mouse serum)) (UniProt Q01339); test: ELISA
[3] = molecular target: domain V of human β2GPI (human) (UniProt P02749); test: ITC
Sequence of domain V of human β2GPI (human) (P02749 263-345): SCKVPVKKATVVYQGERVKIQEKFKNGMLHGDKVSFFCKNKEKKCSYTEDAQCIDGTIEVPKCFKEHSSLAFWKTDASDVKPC

Sequence of mouse β2GPI (beta2-glycoprotein I) (mouse (endogenous in pooled BALB/c mouse serum)) (Q01339 20-345): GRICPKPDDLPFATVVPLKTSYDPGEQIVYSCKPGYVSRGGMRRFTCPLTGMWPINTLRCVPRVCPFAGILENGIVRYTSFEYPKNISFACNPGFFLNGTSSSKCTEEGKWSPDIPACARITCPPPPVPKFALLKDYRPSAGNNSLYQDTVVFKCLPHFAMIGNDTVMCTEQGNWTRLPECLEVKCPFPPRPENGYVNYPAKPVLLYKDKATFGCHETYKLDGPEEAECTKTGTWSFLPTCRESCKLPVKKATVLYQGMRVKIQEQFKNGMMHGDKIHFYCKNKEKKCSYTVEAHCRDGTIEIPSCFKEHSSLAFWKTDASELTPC
Sequence of human β2GPI (beta2-glycoprotein I) (human (endogenous in pooled normal human serum)) (P02749 20-345): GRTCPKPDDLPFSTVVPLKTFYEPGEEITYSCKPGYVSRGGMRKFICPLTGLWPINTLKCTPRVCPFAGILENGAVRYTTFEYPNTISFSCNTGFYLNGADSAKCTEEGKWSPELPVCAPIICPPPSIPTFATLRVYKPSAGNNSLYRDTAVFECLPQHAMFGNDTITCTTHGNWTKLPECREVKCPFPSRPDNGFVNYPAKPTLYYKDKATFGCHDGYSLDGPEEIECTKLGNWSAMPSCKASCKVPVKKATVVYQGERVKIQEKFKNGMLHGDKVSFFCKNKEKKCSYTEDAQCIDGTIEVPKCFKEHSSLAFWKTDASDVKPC

Row | Substance | IC50 [1] | IC50 [2] | Kd [3] | dH [3] | stoichiometry N [3]
1 | human A1-A1 | 5 µM | 3.1 µM |  |  | 
2 | Asn36/Asp mutant of mouse A1-A1 (from UniProt Q924X6 40-75; Q924X6 40-75) | 2.5 µM | 2.8 µM |  |  | 
3 | mouse A1-A1 | 2.7 µM | 3 µM |  |  | 
4 | mouse A1, first ligand-binding module of ApoE receptor 2 (ApoER2) (domain or fragment) |  |  | 26 µM | -5.5 kcal/mol | 1.06
5 | human A1, first ligand-binding module of ApoE receptor 2 (ApoER2) (domain or fragment) |  |  | 20 µM | -6.3 kcal/mol | 1.06
